Test results as given in the supplement of paper PMC7125110.
± gives the standard error. For some assays here: This sample holds only a part of the variants without activity.

B1: glmS ribozyme (parent)
chain: AUAAAAGCGCCAGAACUACAGAAAUGUAGUUGACGAGGAGGAGGUUUAUCGAAUUUUCGGCGGAUGCCUCCAAA

What was measured:
Conditions in all cases: with glucosamine-6-phosphate
glucosamine-6-phosphate [1] = variants of: B1; assay: kcat; higher = faster cleavage; RNA array
Summary of the method: (§1)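 Weighted Michaelis–Menten fits across concentrations supplied kcat and KM, based on kobs from one- or two-exponential decay fits to normalised per-tile medians. The data came from barcoded ribozyme variants transcribed in situ by E. coli RNA polymerase on sequenced MiSeq chips and tracked at 37 °C by a hybridised Cy3 probe. Glucosamine-6-phosphate (40 μM to 10 mM) in HEPES/KCl/Mg(OAc)2 buffer was flowed in.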

glucosamine-6-phosphate [2] = variants of: B1; assay: self-cleavage kobs at 160 uM GlcN6P; higher = faster cleavage; RNA array
Summary of the method: as §1

glucosamine-6-phosphate [3] = variants of: B1; assay: self-cleavage kobs at 640 uM GlcN6P; higher = faster cleavage; RNA array
Summary of the method: as §1

glucosamine-6-phosphate [4] = variants of: B1; assay: self-cleavage kobs at 2500 uM GlcN6P; higher = faster cleavage; RNA array
Summary of the method: as §1

glucosamine-6-phosphate [5] = variants of: B1; assay: self-cleavage kobs at 10000 uM GlcN6P; higher = faster cleavage; RNA array
Summary of the method: as §1

glucosamine-6-phosphate [6] = variants of: B1; assay: KM; higher = weaker cofactor use; RNA array
Summary of the method: as §1

glucosamine-6-phosphate [7] = variants of: B1; assay: self-cleavage kobs at 40 uM GlcN6P; higher = faster cleavage; RNA array
Summary of the method: as §1

Variant | kcat (glucosamine-6-phosphate [1]) [s⁻¹] | self-cleavage kobs at 160 uM GlcN6P (glucosamine-6-phosphate [2]) [s⁻¹] | self-cleavage kobs at 640 uM GlcN6P (glucosamine-6-phosphate [3]) [s⁻¹] | self-cleavage kobs at 2500 uM GlcN6P (glucosamine-6-phosphate [4]) [s⁻¹] | self-cleavage kobs at 10000 uM GlcN6P (glucosamine-6-phosphate [5]) [s⁻¹] | KM (glucosamine-6-phosphate [6]) [µM] | self-cleavage kobs at 40 uM GlcN6P (glucosamine-6-phosphate [7]) [s⁻¹]
U55A U69G | 6.88e-05 ± 8.3e-06 | 8.26e-05 ± 1.6e-05 | 6.99e-05 ± 1.2e-05 | 7.05e-05 ± 8.6e-06 | 5.04e-05 ± 1.3e-05 |  | 
U57A C61G | 1.36e-05 ± 5.5e-06 |  |  |  |  |  | 
G59A U69C | 5.07e-05 ± 2.8e-06 |  |  |  | 4.7e-05 ± 1e-05 | 943 ± 240 | 
U56G C61A | < 1e-05 |  |  |  |  |  | 
U54A G66U | 0.00199 ± 0.00037 | 0.000194 ± 3.3e-05 | 0.000521 ± 8e-05 | 0.00141 ± 0.00024 | 0.00174 ± 0.00024 | 1460 ± 440 | 8.58e-05 ± 1.9e-05
U54A G66C | 0.000876 ± 0.00013 | 0.00012 ± 2.7e-05 | 0.000259 ± 6.7e-05 | 0.000758 ± 0.00014 | 0.000737 ± 0.0001 | 1230 ± 390 | 
U54G | 0.0504 ± 0.0099 | 0.00365 ± 0.00023 | 0.0116 ± 0.00052 | 0.0251 ± 0.0014 | 0.0511 ± 0.0026 | 1870 ± 470 | 0.00117 ± 3.8e-05
U54C | 0.0582 ± 0.0055 | 0.00345 ± 0.00027 | 0.0121 ± 0.0007 | 0.0274 ± 0.0017 | 0.051 ± 0.0026 | 2290 ± 240 | 0.00101 ± 1.9e-05
U54A | 0.0591 ± 0.015 | 0.00285 ± 0.00013 | 0.0124 ± 0.00049 | 0.03 ± 0.0018 | 0.0497 ± 0.0024 | 2360 ± 680 | 0.00106 ± 2e-05
U54C U57G | 0.000492 ± 1.5e-05 |  |  |  | 6.43e-05 ± 1.1e-05 |  | 
U54C U57A | 0.000407 ± 0.00018 |  | 7.93e-05 ± 1.9e-05 | 0.000112 ± 2.5e-05 | 0.000297 ± 4.3e-05 |  | 
U55C C58G | 0.000215 ± 1.3e-05 |  |  | 3.85e-05 ± 1.1e-05 | 9.91e-05 ± 1.2e-05 |  | 
U54C A64G | 0.016 ± 0.0067 | 0.00156 ± 0.00033 | 0.00883 ± 0.0018 | 0.0287 ± 0.0082 | 0.0123 ± 0.0031 |  | 0.000616 ± 8.4e-05
U54G U56A U69G | 5.38e-05 ± 1.1e-05 |  | 7.97e-05 ± 1.8e-05 | 4.21e-05 ± 1.1e-05 | 6e-05 ± 1.8e-05 |  | 4.11e-05 ± 1.9e-05
U55G C58G | 0.000161 ± 1.7e-05 |  |  | 4.5e-05 ± 8.6e-06 | 9.57e-05 ± 1.1e-05 | 6790 ± 1400 | 
U55C G66C | 0.00112 ± 9.6e-05 | 7.47e-05 ± 1.8e-05 | 0.000336 ± 7.1e-05 | 0.000678 ± 0.00012 | 0.000913 ± 9.7e-05 | 1950 ± 340 | 
